Patent US10941182 (Amgen, dated 2021)
Starred links: 1 amine or outer side, 2 acyl side, 3 side chain; linkers in the order of their positions; H or OH if unused. Non-standard residues stand in square brackets, D forms with d. *: point of attachment. AC4Abu = α-carboxy-4-aminobutyric acid, O=C(C(CCN[*:1])C(=O)[*:3])[*:2]; Oic = O=C(O)[C@@H]1C[C@@H]2CCCC[C@@H]2N1; Phe(4-Cl) = N[C@@H](Cc1ccc(Cl)cc1)C(=O)O; γGlu = O=C(O)[C@H](CCC(=O)[*:2])N[*:1]; 2Nal = N[C@@H](Cc1ccc2ccccc2c1)C(=O)O; NMeR = CN[C@@H](CCCNC(=N)N)C(=O)O; Tridecanoyl = CCCCCCCCCCCCC(=O)*; Cha = N[C@@H](CC1CCCCC1)C(=O)O; αMeL = CC(C)C[C@](C)(N)C(=O)O; Tle = CC(C)(C)[C@H](N)C(=O)O; αMeP = C[C@@]1(C(=O)O)CCCN1; β3hP = O=C(O)C[C@@H]1CCCN1; β3hS = N[C@@H](CO)CC(=O)O; Nle = CCCC[C@H](N)C(=O)O; AEEA = NCCOCCOCC(=O)O; Aib = CC(C)(N)C(=O)O; BLeu = β-leucine

T1: rat APJ receptor (rat, UniProt Q9JHG3 1-377)
T1 sequence (looked up): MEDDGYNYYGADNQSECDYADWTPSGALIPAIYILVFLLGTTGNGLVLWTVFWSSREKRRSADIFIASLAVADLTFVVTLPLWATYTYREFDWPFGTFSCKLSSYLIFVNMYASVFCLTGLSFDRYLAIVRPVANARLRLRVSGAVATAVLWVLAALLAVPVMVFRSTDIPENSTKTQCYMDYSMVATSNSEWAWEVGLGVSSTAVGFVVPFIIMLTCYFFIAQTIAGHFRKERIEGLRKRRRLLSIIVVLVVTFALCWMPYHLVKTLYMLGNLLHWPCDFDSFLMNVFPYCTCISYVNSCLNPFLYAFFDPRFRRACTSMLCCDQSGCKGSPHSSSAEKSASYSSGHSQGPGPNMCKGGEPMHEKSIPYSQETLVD

T2: human APJ receptor (human, UniProt P35414 1-380)
T2 sequence (looked up): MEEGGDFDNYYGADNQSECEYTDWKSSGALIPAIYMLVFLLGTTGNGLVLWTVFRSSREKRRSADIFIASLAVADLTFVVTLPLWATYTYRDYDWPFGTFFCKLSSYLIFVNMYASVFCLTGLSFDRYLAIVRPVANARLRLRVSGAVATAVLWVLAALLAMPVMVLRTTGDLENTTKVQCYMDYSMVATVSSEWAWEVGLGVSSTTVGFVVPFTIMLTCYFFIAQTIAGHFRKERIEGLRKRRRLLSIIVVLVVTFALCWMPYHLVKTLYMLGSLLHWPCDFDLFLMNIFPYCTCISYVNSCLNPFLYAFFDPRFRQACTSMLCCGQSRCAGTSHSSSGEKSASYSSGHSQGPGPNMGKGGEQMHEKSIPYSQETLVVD

B1: Apelin polypeptide SEQ ID NO: 543 (peptide)
peptide: Tridecanoyl-[γGlu][AEEA][AEEA][dQ]RP[NMeR][Cha]SHK[Tle][Oic][Nle][Aib][Phe(4-Cl)]-OH
SMILES: CCCCCCCCCCCCC(=O)N[C@@H](CCC(=O)NCCOCCOCC(=O)NCCOCCOCC(=O)N[C@H](CCC(N)=O)C(=O)N[C@@H](CCCNC(=N)N)C(=O)N1CCC[C@H]1C(=O)N(C)[C@@H](CCCNC(=N)N)C(=O)N[C@@H](CC1CCCCC1)C(=O)N[C@@H](CO)C(=O)N[C@@H](Cc1c[nH]cn1)C(=O)N[C@@H](CCCCN)C(=O)N[C@H](C(=O)N1[C@H](C(=O)N[C@@H](CCCC)C(=O)NC(C)(C)C(=O)N[C@@H](Cc2ccc(Cl)cc2)C(=O)O)C[C@@H]2CCCC[C@@H]21)C(C)(C)C)C(=O)O
B2: Apelin polypeptide SEQ ID NO: 530 (peptide)
peptide: Tridecanoyl-[γGlu][AEEA][AEEA][dQ]RP[NMeR][Cha]SAKG[Oic][Nle][Aib][Phe(4-Cl)]-OH
SMILES: CCCCCCCCCCCCC(=O)N[C@@H](CCC(=O)NCCOCCOCC(=O)NCCOCCOCC(=O)N[C@H](CCC(N)=O)C(=O)N[C@@H](CCCNC(=N)N)C(=O)N1CCC[C@H]1C(=O)N(C)[C@@H](CCCNC(=N)N)C(=O)N[C@@H](CC1CCCCC1)C(=O)N[C@@H](CO)C(=O)N[C@@H](C)C(=O)N[C@@H](CCCCN)C(=O)NCC(=O)N1[C@H](C(=O)N[C@@H](CCCC)C(=O)NC(C)(C)C(=O)N[C@@H](Cc2ccc(Cl)cc2)C(=O)O)C[C@@H]2CCCC[C@@H]21)C(=O)O
B3: Apelin polypeptide SEQ ID NO: 472 (peptide)
peptide: Tridecanoyl-[γGlu][AEEA][AEEA]QRP[NMeR][αMeL]SHKGP[Nle]P[2Nal]-OH
SMILES: CCCCCCCCCCCCC(=O)N[C@@H](CCC(=O)NCCOCCOCC(=O)NCCOCCOCC(=O)N[C@@H](CCC(N)=O)C(=O)N[C@@H](CCCNC(=N)N)C(=O)N1CCC[C@H]1C(=O)N(C)[C@@H](CCCNC(=N)N)C(=O)N[C@@](C)(CC(C)C)C(=O)N[C@@H](CO)C(=O)N[C@@H](Cc1c[nH]cn1)C(=O)N[C@@H](CCCCN)C(=O)NCC(=O)N1CCC[C@H]1C(=O)N[C@@H](CCCC)C(=O)N1CCC[C@H]1C(=O)N[C@@H](Cc1ccc2ccccc2c1)C(=O)O)C(=O)O
B4: Apelin polypeptide SEQ ID NO: 417 (peptide)
peptide: Tridecanoyl-[AC4Abu][AEEA][AEEA]QRP[NMeR][Cha]SHKG[β3hP][Nle]P[Phe(4-Cl)]-OH
SMILES: CCCCCCCCCCCCC(=O)NCCC(C(=O)O)C(=O)NCCOCCOCC(=O)NCCOCCOCC(=O)N[C@@H](CCC(N)=O)C(=O)N[C@@H](CCCNC(=N)N)C(=O)N1CCC[C@H]1C(=O)N(C)[C@@H](CCCNC(=N)N)C(=O)N[C@@H](CC1CCCCC1)C(=O)N[C@@H](CO)C(=O)N[C@@H](Cc1c[nH]cn1)C(=O)N[C@@H](CCCCN)C(=O)NCC(=O)N1CCC[C@H]1CC(=O)N[C@@H](CCCC)C(=O)N1CCC[C@H]1C(=O)N[C@@H](Cc1ccc(Cl)cc1)C(=O)O
B5: Apelin polypeptide SEQ ID NO: 551 (peptide)
peptide: Tridecanoyl-[γGlu][AEEA][AEEA][dQ]RP[NMeR][Cha]SHKG[αMeP][Nle][Phe(4-Cl)]-OH
SMILES: CCCCCCCCCCCCC(=O)N[C@@H](CCC(=O)NCCOCCOCC(=O)NCCOCCOCC(=O)N[C@H](CCC(N)=O)C(=O)N[C@@H](CCCNC(=N)N)C(=O)N1CCC[C@H]1C(=O)N(C)[C@@H](CCCNC(=N)N)C(=O)N[C@@H](CC1CCCCC1)C(=O)N[C@@H](CO)C(=O)N[C@@H](Cc1c[nH]cn1)C(=O)N[C@@H](CCCCN)C(=O)NCC(=O)N1CCC[C@@]1(C)C(=O)N[C@@H](CCCC)C(=O)N[C@@H](Cc1ccc(Cl)cc1)C(=O)O)C(=O)O
B6: Apelin polypeptide SEQ ID NO: 414 (peptide)
peptide: Tridecanoyl-[AC4Abu][AEEA][AEEA]QRP[NMeR][Cha]SHKG[Aib][Nle]P[Phe(4-Cl)]-OH
SMILES: CCCCCCCCCCCCC(=O)NCCC(C(=O)O)C(=O)NCCOCCOCC(=O)NCCOCCOCC(=O)N[C@@H](CCC(N)=O)C(=O)N[C@@H](CCCNC(=N)N)C(=O)N1CCC[C@H]1C(=O)N(C)[C@@H](CCCNC(=N)N)C(=O)N[C@@H](CC1CCCCC1)C(=O)N[C@@H](CO)C(=O)N[C@@H](Cc1c[nH]cn1)C(=O)N[C@@H](CCCCN)C(=O)NCC(=O)NC(C)(C)C(=O)N[C@@H](CCCC)C(=O)N1CCC[C@H]1C(=O)N[C@@H](Cc1ccc(Cl)cc1)C(=O)O
B7: Apelin polypeptide SEQ ID NO: 438 (peptide)
peptide: Tridecanoyl-[γGlu][AEEA][AEEA]QRP[NMeR][Cha]S[Tle]KG[Oic][Nle]P[Phe(4-Cl)]-OH
SMILES: CCCCCCCCCCCCC(=O)N[C@@H](CCC(=O)NCCOCCOCC(=O)NCCOCCOCC(=O)N[C@@H](CCC(N)=O)C(=O)N[C@@H](CCCNC(=N)N)C(=O)N1CCC[C@H]1C(=O)N(C)[C@@H](CCCNC(=N)N)C(=O)N[C@@H](CC1CCCCC1)C(=O)N[C@@H](CO)C(=O)N[C@H](C(=O)N[C@@H](CCCCN)C(=O)NCC(=O)N1[C@H](C(=O)N[C@@H](CCCC)C(=O)N2CCC[C@H]2C(=O)N[C@@H](Cc2ccc(Cl)cc2)C(=O)O)C[C@@H]2CCCC[C@@H]21)C(C)(C)C)C(=O)O
B8: Apelin polypeptide SEQ ID NO: 545 (peptide)
peptide: Tridecanoyl-[γGlu][AEEA][AEEA][dQ]RP[NMeR][Cha]SHKG[αMeP][Nle][β3hP][Phe(4-Cl)]-OH
SMILES: CCCCCCCCCCCCC(=O)N[C@@H](CCC(=O)NCCOCCOCC(=O)NCCOCCOCC(=O)N[C@H](CCC(N)=O)C(=O)N[C@@H](CCCNC(=N)N)C(=O)N1CCC[C@H]1C(=O)N(C)[C@@H](CCCNC(=N)N)C(=O)N[C@@H](CC1CCCCC1)C(=O)N[C@@H](CO)C(=O)N[C@@H](Cc1c[nH]cn1)C(=O)N[C@@H](CCCCN)C(=O)NCC(=O)N1CCC[C@@]1(C)C(=O)N[C@@H](CCCC)C(=O)N1CCC[C@H]1CC(=O)N[C@@H](Cc1ccc(Cl)cc1)C(=O)O)C(=O)O
B9: Apelin polypeptide SEQ ID NO: 500 (peptide)
peptide: Tridecanoyl-[γGlu][AEEA][AEEA][dQ]RP[NMeR][Cha][β3hS]HKG[Oic][Nle][Aib][Phe(4-Cl)]-OH
SMILES: CCCCCCCCCCCCC(=O)N[C@@H](CCC(=O)NCCOCCOCC(=O)NCCOCCOCC(=O)N[C@H](CCC(N)=O)C(=O)N[C@@H](CCCNC(=N)N)C(=O)N1CCC[C@H]1C(=O)N(C)[C@@H](CCCNC(=N)N)C(=O)N[C@@H](CC1CCCCC1)C(=O)N[C@@H](CO)CC(=O)N[C@@H](Cc1c[nH]cn1)C(=O)N[C@@H](CCCCN)C(=O)NCC(=O)N1[C@H](C(=O)N[C@@H](CCCC)C(=O)NC(C)(C)C(=O)N[C@@H](Cc2ccc(Cl)cc2)C(=O)O)C[C@@H]2CCCC[C@@H]21)C(=O)O
B10: Apelin polypeptide SEQ ID NO: 498 (peptide)
peptide: Tridecanoyl-[γGlu][AEEA][AEEA][dQ]RP[NMeR][Cha]SHKG[αMeP][Nle][Aib][Phe(4-Cl)]-OH
SMILES: CCCCCCCCCCCCC(=O)N[C@@H](CCC(=O)NCCOCCOCC(=O)NCCOCCOCC(=O)N[C@H](CCC(N)=O)C(=O)N[C@@H](CCCNC(=N)N)C(=O)N1CCC[C@H]1C(=O)N(C)[C@@H](CCCNC(=N)N)C(=O)N[C@@H](CC1CCCCC1)C(=O)N[C@@H](CO)C(=O)N[C@@H](Cc1c[nH]cn1)C(=O)N[C@@H](CCCCN)C(=O)NCC(=O)N1CCC[C@@]1(C)C(=O)N[C@@H](CCCC)C(=O)NC(C)(C)C(=O)N[C@@H](Cc1ccc(Cl)cc1)C(=O)O)C(=O)O

Biological target: T1, rat APJ receptor
Test: cell-based or functional assay

Row | EC50 Rat APJ Receptor (GTPγS assay) | Binder
1 | 1.4 nM | B1
2 | 1.5 nM | Tridecanoyl-[γGlu][AEEA][AEEA]QRP[NMeR][BLeu]SHKG[Oic][Nle]P[Phe(4-Cl)]-OH [Apelin polypeptide SEQ ID NO: 391]
3 | 0.975 nM | B2
4 | 0.092 nM | B3
5 | 0.197 nM | XXXQRPRLSHKGPXPF ({TDA}[AC4Abu][Aeea][Aeea]QRP[NMeArg][BhLeu]SHKGP[Nle]P[4-Cl-F]{COOH}) [Apelin polypeptide SEQ ID NO: 422]
6 | 8.1 nM | B4
7 | 1.15 nM | B5
8 | 3.79 nM | B6
9 | 1.28 nM | B7
10 | 3.7 nM | B8
11 | 10.1 nM | Tridecanoyl-[γGlu][AEEA][AEEA]QRP[NMeR][Cha]SH[AMeK]G[Oic][Nle]P[Phe(4-Cl)]-OH [Apelin polypeptide SEQ ID NO: 444]
12 | 3.14 nM | B9
13 | 0.138 nM | B10

Biological target: T2, human APJ receptor
Test: cell-based or functional assay

Row | EC50 Human APJ Receptor (GTPγS assay) | Binder
14 | 583 pM | B1
15 | 565 pM | Tridecanoyl-[γGlu][AEEA][AEEA]QRP[NMeR][BLeu]SHKG[Oic][Nle]P[Phe(4-Cl)]-OH [Apelin polypeptide SEQ ID NO: 391]
16 | 380 pM | B2
17 | 20.4 pM | B3
18 | 169 pM | XXXQRPRLSHKGPXPF ({TDA}[AC4Abu][Aeea][Aeea]QRP[NMeArg][BhLeu]SHKGP[Nle]P[4-Cl-F]{COOH}) [Apelin polypeptide SEQ ID NO: 422]
19 | 5990 pM | B4
20 | 234 pM | B5
21 | 3390 pM | B6
22 | 1490 pM | B7
23 | 1300 pM | B8
24 | 5600 pM | Tridecanoyl-[γGlu][AEEA][AEEA]QRP[NMeR][Cha]SH[AMeK]G[Oic][Nle]P[Phe(4-Cl)]-OH [Apelin polypeptide SEQ ID NO: 444]
25 | 588 pM | B9
26 | 29.9 pM | B10
